Test results published in patent US20150376261A1.

How the values were obtained:
hMor1-34GS-Nb10 (human) = test: radioligand competition against [3H]-diprenorphine on Sf9 membranes
hMor1-34GS-Nb33 (human) [1] = test: as above
hMor1-34GS-Nb33 (human) [2] = test: ratio of the IC50s on hMor1-34GS-Nb10 (reference) and hMor1-34GS-Nb33 membranes, [3H]-diprenorphine competition

| Substance | IC50 (hMor1-34GS-Nb10 (human)) [nM] | IC50 (hMor1-34GS-Nb33 (human) [1]) [nM] | IC50Nb10/IC50Nb33 (hMor1-34GS-Nb33 (human) [2]) |
| --- | --- | --- | --- |
| KGOP01 (peptide) | 76.7 | 3.8 | 20 |
| Dmt1-Dalda (peptide) | 655 | 18 |  |
